Measured values published in patent KR20190016466A.

How the values were obtained:
[1] = target: human FcRn (hFcRn) (human) (UniProt P55899); assay: SPR (XPR36), hFcRn on chip, antibody flowed, pH 6.0
[2] = target: human FcRn (hFcRn) (human) (UniProt P55899); assay: SPR (XPR36), hFcRn on chip, antibody flowed, pH 7.4
[3] = target: human FcRn (hFcRn) (human) (UniProt P55899); assay: ELISA, antibody coated, hFcRn added, anti-6-His detection, pH 6.0; reference WT
[4] = target: human FcRn (hFcRn) (human) (UniProt P55899); assay: ELISA, antibody coated, hFcRn added, anti-6-His detection, pH 7.4; reference WT

Chain of UniProt P55899 (P55899 24-297 limits assumed, form in doubt): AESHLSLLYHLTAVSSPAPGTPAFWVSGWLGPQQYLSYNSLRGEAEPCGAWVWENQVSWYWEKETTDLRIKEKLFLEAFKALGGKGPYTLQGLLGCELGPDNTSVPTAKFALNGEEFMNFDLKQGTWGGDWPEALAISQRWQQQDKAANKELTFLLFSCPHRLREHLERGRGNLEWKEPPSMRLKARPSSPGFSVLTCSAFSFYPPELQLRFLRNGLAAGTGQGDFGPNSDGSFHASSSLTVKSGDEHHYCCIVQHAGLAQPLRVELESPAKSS

| Substance | RU [1] | RU [2] | fold increase of affinity over WT [3] | fold increase of affinity over WT [4] |
| --- | --- | --- | --- | --- |
| HN (H462K/N463F) 변이 SO57 항체 (antibody) | 195 RU | 100 RU | 18 배 (fold) | 17 배 (fold) |
| MN (M457L/N463S) 변이 SO57 항체 (antibody) | 180 RU | 70 RU | 16 배 (fold) | 15 배 (fold) |
| MST (M281Y/S283T/T285E) 변이 SO57 항체 (antibody) | 140 RU | 20 RU | 12 배 (fold) | 2 배 (fold) |
